B1: library; numbered along this chain (parent)
chain: MATDAALRRLLRLHRTEIAVAVDSAFPLLHALADHDVVPEDKFQETLHLKEKEGCPQAFHALLSWLLTQDSTAILDFWRVLFKDYNLERYGRLQPILDSFPKDVDLSQPRKGRKPPAVPKALVPPPRLPTKRKASEEARAAAPAALTPRGTASPGSQLKAKPPKKPESSAEQQRLPLGNGIQTMSASVQRAVAMSSGDVPGARGAVEGILIQQVFESGGSKKCIQVGGEFYTPSKFEDSGSGKNKARSSSGPKPLVRAKGAQGAAPGGGEARLGQQGSVPAPLALPSDPQLHQKNEDECAVCRDGGELICCDGCPRAFHLACLSPPLREIPSGTWRCSSCLQATVQEVQPRAEEPRPQEPPVETPLPPGLRSAGEEVRGPPGEPLAGMDTTLVYKHLPAPPSAAPLPGLDSSALHPLLCVGPEGQQNLAPGARCGVCGDGTDVLRCTHCAAAFHWRCHFPAGTSRPGTGLRCRSCSGDVTPAPVEGVLAPSPARLAPGPAKDDTASHEPALHRDDLESLLSEHTFDGILQWAIQSMARPAAPFPS

Variants of: B1
Assay: AIRE transcriptional activation functional score (insulin promoter-GFP; nonsense median 0, synonymous median 1) (normalised score); higher = higher AIRE activity (more reporter activation)
Conditions: with insulin promoter-GFP reporter in HEK293
In short: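 The functional score compares variant enrichment between select and non-select populations after subtracting wild type. To obtain it, codon-optimized AIRE NNN-codon libraries spanning three regions were placed by Bxb1 recombinase into Flp-In T-REx HEK293 landing-pad cells with an insulin core promoter-GFP reporter. Cells with the top 10% GFP and unselected integrants were tile-sequenced after mCherry+, BFP− integrants had been sorted at day 7 and grown 7 more days. Only variants with 10 counts per million in non-select were kept, rescaled to nonsense median 0 and synonymous median 1, and averaged across biological replicates.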

AIRE transcriptional activation functional score, by site and new letter:
S411: N 0.99 | M 1.37 | D 0.711 | H 0.897 | K 1.18
P400: E 0.545 | D 0.319 | A 1.56 | C 0.972 | F 0.712 | Y 1.69 | H 0.71 | G 1.13 | T 0.851 | Q 1.52 | I 0.76 | L 0.451 | N 0.58 | S 0.846 | V 0.815 | R 1.16 | W 1.89
A404: E 0.954 | W 1.16 | M 0.918 | R 1.01 | V 0.729 | K 1.05 | G 0.91 | C 0.451 | F 1.26 | Y 1.3 | H 1.66 | T 1.04 | S 1.02 | P 1.28 | Q 0.81 | L 1.26 | D 0.792 | I 0.94
L397: P 0.66 | N 0.167 | M 0.0442 | G 0.775 | Q 1.36 | W 0.989 | F 0.99 | I 0.407 | S 0.938 | H 0.0686 | V 0.641 | T 0.852 | K 0.921 | Y 0.779 | R 0.938
D410: I 1.19 | Q 1.2 | P 0.93 | F 1.06 | M 0.501 | T 1.41 | W 0.337 | H 1.17 | L 1.08 | C 1.12 | V 0.998 | S 1.27 | A 1.09 | N 1.12 | E 1.11 | Y 1.27 | R 0.412 | G 0.967 | K 0.35
P407: C 1.24 | N 1.39 | G 1.07 | S 1.19 | F 1.2 | L 1.06 | Q 1.2 | V 1.23 | H 1.28 | M 1.6 | R 0.823 | W 1.13 | E 0.454 | Y 1.51 | I 1.43 | A 0.943 | K 0.865 | T 1.18 | D 1.67
G408: H 1.31 | W 1.34 | D 1.2 | I 0.636 | Q 1.29 | K 1.14 | T 0.879 | N 0.674 | F 1.28 | P 0.97 | E 1.05 | V 0.743 | L 0.00278 | A 0.914 | Y 1.08 | C 1.01 | R 0.906 | S 1.03
A403: S 0.725 | E 1.14 | Q 0.915 | L 1.29 | T 1.14 | R 0.877 | I 1.5 | H 1.02 | N 1.09 | F 1.09 | K 1.06 | V 1.29 | W 1.72 | D 0.541 | Y 0.507 | P 0.99 | M 1.38 | G 1.26 | C 0.942
P401: E 1.49 | K 1.55 | T 0.717 | A 0.611 | V 0.635 | R 1.15 | I 0.809 | H 1.01 | S 1.25 | Y 1.14 | F 0.595 | M 0.689 | D 1.07 | L 0.646 | C 1.7 | G 1.14 | N 1.09 | Q 1.18
L406: A 0.954 | T 0.633 | P 0.97 | M 1.3 | E 1.12 | D 0.772 | N 1.18 | K 0.516 | H 1.19 | S 0.856 | W 0.702 | C 1.3 | G 1.08 | Y 1.02 | R 0.985 | Q 1.11 | V 0.908 | F 0.76 | I 1.19

Source: the supplement of paper PMC12667976
